± gives the uncertainty stated by the source.
B1: GA-binding protein alpha chain, residues 172 to 250; numbered along this chain, Q06546 (parent)
chain: GYRKEQERLGIPYDPIQWSTDQVLHWVVWVMKEFSMTDIDLTTLNISGRELCSLNQEDFFQRVPRGEILWSHLELLRKY

Variants of: B1
Test: abundance fitness (aPCA) (normalised: wild type 0, dead -1); higher = more abundant; growth selection in yeast, the domain comes from the species named
Conditions: Homo sapiens

Abundance fitness of substitutions, site by site:
L24: M -0.011 ± 0.038 | N -0.075 ± 0.087 | Y -0.278 ± 0.15 | S -0.104 ± 0.042 | T -0.056 ± 0.062
W29: D -0.57 ± 0.12 | K -0.816 ± 0.22 | Q -0.724 ± 0.087 | A -0.632 ± 0.054 | G -0.776 ± 0.048 | C -0.663 ± 0.099 | S -0.439 ± 0.042 | R -0.9 ± 0.072 | I -1.09 ± 0.28 | T -0.452 ± 0.062 | E -0.701 ± 0.087 | Y -0.106 ± 0.065 | H -0.404 ± 0.058 | L -0.815 ± 0.065 | F -0.279 ± 0.08 | V -0.939 ± 0.08
W26: K -0.906 ± 0.19 | C -0.866 ± 0.096 | S -1.13 ± 0.14 | L -0.886 ± 0.082 | M -0.976 ± 0.14 | Y -0.514 ± 0.12 | R -0.855 ± 0.057 | F -0.404 ± 0.12 | T -1.03 ± 0.11 | N -0.894 ± 0.21 | H -0.822 ± 0.16 | I -0.804 ± 0.19 | P -0.947 ± 0.091 | A -0.904 ± 0.079 | E -1 ± 0.15 | Q -0.875 ± 0.13
M31: Y -0.322 ± 0.088 | D -0.794 ± 0.33 | F -0.09 ± 0.087 | H -0.169 ± 0.23 | P -1.01 ± 0.16 | I -0.031 ± 0.076 | L -0.11 ± 0.037 | Q 0.059 ± 0.049 | N -0.191 ± 0.099 | E -0.289 ± 0.084 | K -0.089 ± 0.079 | R -0.155 ± 0.036 | A -0.046 ± 0.051 | V -0.036 ± 0.033 | C 0.069 ± 0.078 | T 0.018 ± 0.059 | G -0.089 ± 0.037
V30: G -0.051 ± 0.038 | S -0.076 ± 0.041 | M -0.042 ± 0.058 | W -0.339 ± 0.052 | H -0.134 ± 0.068 | Q -0.345 ± 0.054 | L -0.12 ± 0.034 | T 0.003 ± 0.071 | C 0.012 ± 0.14 | I -0.099 ± 0.086 | D -0.763 ± 0.13 | P -0.822 ± 0.12 | Y -0.492 ± 0.096 | E -0.08 ± 0.062
V28: W -0.043 ± 0.024 | F -0.129 ± 0.064 | A -0.004 ± 0.047 | P -0.921 ± 0.086 | S -0.035 ± 0.032 | R 0.043 ± 0.027 | K 0.085 ± 0.069 | Q 0.027 ± 0.046 | H -0.013 ± 0.093 | M 0.016 ± 0.053 | C 0.039 ± 0.042 | D 0.017 ± 0.13 | E -0.039 ± 0.065 | N -0.1 ± 0.098 | I -0.017 ± 0.06 | G -0.023 ± 0.034

— the Human Domainome abundance scans (Beltran et al. 2025)
